Biological target: oligomerized FasL
Assay: cell-based or functional assay

Substance | inhibition of FasL-induced apoptosis of A20 cells (IC50) [µg/mL]
Fas-COMP (receptor) | 0.035
Fas-Fc (Fc fusion) | > 1
FasR:mACRP30 (receptor) | 0.08

Reference: patent US20050255547A1
